Measurements reported in patent publication US20240200046.

Test system: T1, MIT 11-12x.40 meganuclease (MIT 11-12) (artificial (I-CreI derived, Chlamydomonas reinhardtii))
T1 sequence: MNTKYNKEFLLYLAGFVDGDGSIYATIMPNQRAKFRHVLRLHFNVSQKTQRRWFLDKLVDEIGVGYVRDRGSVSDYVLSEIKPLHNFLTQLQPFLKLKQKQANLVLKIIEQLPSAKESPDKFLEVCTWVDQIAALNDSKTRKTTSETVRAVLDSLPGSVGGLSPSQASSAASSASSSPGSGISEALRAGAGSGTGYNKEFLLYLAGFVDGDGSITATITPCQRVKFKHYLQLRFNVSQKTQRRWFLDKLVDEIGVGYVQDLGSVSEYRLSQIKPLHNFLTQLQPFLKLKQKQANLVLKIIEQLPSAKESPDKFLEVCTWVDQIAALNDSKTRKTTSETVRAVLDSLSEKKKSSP
Assay: cell_activity
Details: CHO split-GFP recombination assay, 48 h

wild-type mtDNA tRNA-Ala target site
activity: < 5 % GFP+ cells
